According to US20180237534A1 (Bristol-Myers Squibb, published 2018):

What was measured:
[1] = target: T1, human OX40, membrane-bound (human, UniProt P43489 29-277); experiment: FACS on activated primary human CD4+/CD25+ T cells, purified recombinant antibody, APC GMFI
T1 sequence: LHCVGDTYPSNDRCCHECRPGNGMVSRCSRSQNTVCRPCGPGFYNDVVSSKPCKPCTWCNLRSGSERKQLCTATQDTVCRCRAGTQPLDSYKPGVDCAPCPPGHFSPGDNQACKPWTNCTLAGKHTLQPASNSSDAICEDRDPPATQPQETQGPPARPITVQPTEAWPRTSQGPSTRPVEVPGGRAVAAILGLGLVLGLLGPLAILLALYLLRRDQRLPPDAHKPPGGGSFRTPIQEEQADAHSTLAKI
Protocol: Cells were activated for several days before the binding assay in order to induce OX40 expression. Briefly, PBMCs were cultured for three or four days with magnetic beads coated with anti-human CD3 plus anti-human CD28, in the presence of recombinant human IL-2. On the day of the assay, the beads were removed and the cells stained with a titration of each anti-OX40 antibody. Bound antibodies were detected with a fluorescently conjugated anti-human IgG polyclonal secondary antibody, and the cells were co-stained for CD4 and CD25 to detect activated CD4 T cells. The fluorescence intensity of the staining was measured using a FACSCanto II flow cytometer (Becton Dickinson). The geometric mean fluorescence intensity (GMFI) or median fluorescence intensity (MedFI) of anti-OX40 antibody staining was calculated for the CD4+CD25+ population (FACSDiva software). EC₅₀s for antibody binding were calculated using GraphPad Prism software.

[2] = target: T2, cynomolgus OX40, membrane-bound (cynomolgus monkey, UniProt P43489 29-277 (human entry)); experiment: FACS on activated primary cynomolgus CD4+/CD25+ T cells, purified recombinant antibody, APC GMFI
T2 construct: also called cynoOX40-CHO
T2 chain: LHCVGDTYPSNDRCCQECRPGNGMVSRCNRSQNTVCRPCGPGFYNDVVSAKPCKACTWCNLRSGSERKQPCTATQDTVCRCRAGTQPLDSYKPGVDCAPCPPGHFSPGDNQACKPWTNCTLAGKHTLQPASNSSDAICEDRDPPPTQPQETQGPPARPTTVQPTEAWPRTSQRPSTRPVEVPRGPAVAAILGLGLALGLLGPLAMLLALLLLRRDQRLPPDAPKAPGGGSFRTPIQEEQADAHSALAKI
Protocol: Briefly, cells were activated for several days before the binding assay in order to induce OX40 expression. Total leukocytes were isolated from cynomolgus macaque peripheral blood by lysis of red blood cells using an ammonium chloride buffer. The leukocytes were then cultured for four to five days with in flasks pre-coated with anti-human CD3 plus anti-human CD28 antibodies that cross-react with cynomolgus macaque, in the presence of recombinant human IL-2, in order to expand and activate T cells. On the day of the assay, the cells were harvested and stained with a titration of each anti-OX40 antibody. Bound antibodies were detected with a fluorescently conjugated anti-human IgG polyclonal secondary antibody, and the cells were co-stained for CD4 and CD25 to detect activated CD4 T cells. The fluorescence intensity of the staining was measured using a FACSCanto II flow cytometer (Becton Dickinson). The geometric mean fluorescence intensity (GMFI) or median fluorescence intensity (MedFI) of anti-OX40 antibody staining was calculated for the CD4+CD25+ population (FACSDiva software). Dose-response curves were generated and EC50s for antibody binding were calculated using GraphPad Prism software.
The same experiment was performed with anti-OX40 antibodies with variable region substitutions.

B1: OX40.6 (antibody, human IgG1, kappa, V domains shown)
VH: EVQLVQSGGGLVQPGGSLRLSCAGSGFTFSNYAMYWVRQAPGKGLEWVSAIGIGGDTFYTDSVKGRFTISRDNAKNSLSLQMNSLRAEDTAVYYCARMGTGYFFDYWGQGTLVTVSS
VL: EIVLTQSPATLSLSPGERATLSCRASQSVSSYLAWYQQKPGQAPRLLIYDASNRATGIPARFSGSGSGTDFTLTISSLEPEDFAVYYCQQRSNWPLTFGPGTKVDIKR
notes: g1f; 23H3 with VH-H13Q/M87T
- EC50 (read off the curve) [1]: ~0.1 nM
- EC50 (read off the curve) [2]: ~0.1 nM
